Assay: yeast display, Sf9 membrane polyspecificity reagent, FACS + sequencing; frameworks hold sequencing errors
In short: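 After 36–48 hours of galactose induction, yeast (Saccharomyces cerevisiae BJ5465) displaying a synthetic nanobody library were stained at 4 °C for 1 hour with 10% biotinylated, detergent-solubilized Sf9 membrane reagent. Streptavidin microbeads enriched the stained cells before FACS sorting into low and high (top ~1%) gates on anti-HA and streptavidin fluorescence. Each clone's polyreactivity label reflects its gate of origin.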

Sequence | polyreactivity (PSR sort gate)
QVQLVESGGGLVQAGGSLRLSCAASGITFEGYAMGWYRQAPGKEREFVAAITGSGSTTYYADSVKGRFTITRDNAKNTVYLQMNSLKPEDTAVYYCVAYVGSTYSAPEYYWGQGTQVTVSS | low polyreactivity
QVQLVESGGGLVQAGGSLRLSCAASGSTFDIYAMGWYRQAPGKERELVAAIRGRGGSTYYADSVKGRFTISRDNAKNTVSLQMNSLKPEDTAVYYCAAQTKRQRREFGFWGQGTQVTVSS | high polyreactivity
QVQLVESGGGLVQAGGSLRLSCAASGSTFYRYAMGWYRQAPGKERELVAAISSDGTTYYADSVKGRFTISRDNAKNTVYLQMNSLKPEDTAVYYCAKRGYYRSRRYDYWGQGTQVTVSS | high polyreactivity
QVQLVESGGGLVQAGGSLRLSCAASGRTFQLNAMGCYRQAPGKERELVAAISTRGGSTYYADSVKGRFTISRDNAKNTVYLQMNSLKPEDTAVYYCAKDPSFTRGYKDGGGYDYWGQGTQVTVSS | high polyreactivity
QVQLVESGGGLVQAGGSLRLSCAASGLTFSHYAMGWYRQAPGKERELVAGISSRGGNTYYADSVKGRFTISRDYAKNTVYLQMNSLKPEDTAVFYCNAPKPKRAYDYWGQGSQVTVSS | high polyreactivity
QVQLVESGGGLVQAGGSLRLSCAASGLIFRVYAMGWYRQAPGKERELVAAITWSDGSTYYADSVKGRFTISRDNAKNTVYLQMNSLKPEDTAVYYCAAEFWYDWDYDYYYWGQGTQVTVSS | high polyreactivity
QVQLVESGGGLVQAGGSLRLSCAASGRIFGVNAMGWYRQAPGKERELVADITGSGGSTYYADSVKGRFTISRDNAKNTVYLQMNCLKAEDTAVYYCATRWIGYTSQWDHFEYDYWGQGTQVTVSS | low polyreactivity
QVQLVESGGGLVQAGGSLRLSCAASGYILYPYAMGWYRQAPGKERELVAAIRQRGGSTYYADSVKGRFTISRDNAKNTVYLQMNSLKPEDTAVYYCAAYLSPKRALTRGYGYWGQGTQVTVSS | high polyreactivity
QVQLVESGGGLFQAGVSLRLSCAASGLIFYGNAMGWYRQAPGKERELVAAITGGGGNTYYADSVKGRFTISRYYAKITVYLQMNSLKPEDTAVYYCATATSTAYVRYYYWGQGTQVTVSS | high polyreactivity
QVQLVESGGGLVQAGGSLRLSCAASGRNFPGYARGWYRQAPGKEGELVAGINWSSGSTYYADSVKGRFTISRDNAKNTVYLQMNSLKPEDTAVYYCNALGYWRSTVHYVVGEVDYWGQGTQVTVSS | low polyreactivity
QVQLEESGGGLVQAGGSLRLSCAASGFIFYWYAMGWYIKAPGKERELVAAITRSGGRTYYADSVKGRFTFSRDNAKNTVYLQMNRLKPEDTAVYYCNAGYWLSPYKFGYWGQGTQVTVSS | high polyreactivity
QDQLVESGGGLVQAGGSLRLSCAASGSIFAGNVMGWYRQAPGKERELVAAISRRGGRTYYADSVKGRFTISRDNAKNTVYLQMNSLKPEDTAVYYCAARRDPVLGKSDYWGQGTLVTVSS | high polyreactivity
QVQLVESGGGLVQAGGSLRLSCAASGRIFRIYAMGWYRQAPGKERELVARITYSGGSTYYADSVKGRFTISRDNAKNTVYLQMNSLKPEDTAVYFCAADWLGYQYGYWGQGTQVTVSS | low polyreactivity
QVQLVESGGGLVHAGGSLRLSCAASGRTFNGNAMGWYRQAPGKERELVAVITGSGGSTYYADSVKGRYTISRDNAKNTVYLQMNSLKPEDTAVYYCNKKVQRRSWYDYWGQGTQVTVSS | low polyreactivity
QVQLVESGGRLVQAGGSLRLSCAASGRTFGYYAMGWYRQAPGQERELVAAITESGGSTYYSDSVKGRFTISRDNAMNTVYLQMNSLKPEDTAVYYFASTHFVKGDYWGQGTQVTVSS | high polyreactivity
QVQLHESGGGLVQAGGSLRLSCAASGTISYAGPMGWSRQAPGKEREFVAGIGVGSNTNYADSVKGRYTIIRANAKNTVALQMTCLKPEDTAVYYCAVGGYAPLGRPYWGQGTHVTVSS | low polyreactivity
QVQHVESGGGLVQAGGSLRLSCAASGSTFRRYAMGWYRQAPGKERELVASITYRGGSTYYADSVKGRFTISRDNAKNTVYLQKNSLKPEDTAVYYCSKKGVYGPLIEYWAQGTQVTVSS | high polyreactivity
QVQLVESGGGIVQAGGSLRLSCAASGFNFLRYAMGWYRQAPGKERELVAAISTSGGSTSYADSVKGRFTISRDNAKNTVYLQMNSLNPEDTAVYYCNAVLYKVSISEYDYWGQGTQVTVSS | high polyreactivity
QVQLVESGGGIVQAGGSLRLSCAASGIIFPYYAMGWYRQAPGKVRELVAAISSSGGSTHYADSVKGRFTISRDTAKNTVYLQMHSLKPEDTAVYYCAARDINRYPKAQPTDRSIYYWRQGTQVTVSS | high polyreactivity
QVQLVDSGGGLVQAGGSLRLSWAASGSTFVYNAMGWYRQAPGKEREFVAGISRSGGSTYYADSVKGRFTISRDNAKNTVYFQMNSLKPEDTAVYYCNARGGLPKYGYWGQGTQVTVSS | high polyreactivity
QVQRVESGGGLVQAGGSLRLSCAASGNIFGYAMGWYRQAPGKERELVAAISRGGGTYYADSVKGRFTISRDNAKNTVYLQMNSLKPEDTADYYCAARLVKGYSRMNYWGQGTQVTVSS | high polyreactivity
QVQLVDSGGGLVQAGGSLRLSCAASGIIFWRYAMGWYRQAPGKERELVASISSSGGRTYYADSVKGRFTISRDNAKNTVYLQMNSLKPEDTAVYYCAARGPYGYDLLYYWGQGTQVTVSS | high polyreactivity

Sequence | polyreactivity (PSR sort gate)
QVQLVESGGGLVQAGGSLRLSCAASGRIFYGNAMGWYRQAPGKERELVAAIRRSGGSTYYAESVKGRVTISRDNAKNTVYLQMNSLKPEDTAVYYRNADAFNKISYVWYDYWGQGPQVTVSS | low polyreactivity
QVQLVESGGGLVQAGGSLRLSCAASGFIFGSNAMGWYRQAPGKERELVAAISSRGGRTYYADSVKGRFTISRDNAKNTVYLQMNSLKPEDTAVYYCATVRYRALRYDYWGQGTQVTVSS | high polyreactivity
QVQLVESGGGLVQAGGSLRLSCAASGRTFKYNTMGWYRQAPGKERELVAVISRSGGRTYYADSVKGRFTISRDNAKNTVYLQMNSLKPEDTAVYYCAKGIPYADPQSAYDDYWGQGTQVTVSS | high polyreactivity
QVQLVESGGGLVQAGGSLRLSCAASGFTFFGYAMGWYRQEPGKERELVAAISTIDGDTYYADSVKGRFTISRDNAKNSFYFLMNSLKPEDTAVYYCAADDYIDGDDYWGQGTQVTVSS | low polyreactivity
QVQLVESGGGLVQAGGSLRLSCAASGRTFNYSAMGWYRQAPGTERELVAAISSSGGRTYYADSVKGRFTISRDNAKITVYLQMNSLKPEDTAVYYCAADSFYYRPEYDYWGQGTQVTVSS | low polyreactivity
QVQLVESGGGLVQEGGSLRLSCAASGFIFRSYAMGWYRKAPGKERELVAAISSSGGSTYYADSVKGRFTISRDNAKNTVYLPMNSLKPEDTAVYYCAKGYQRGRDYWGQGTQVTVSS | high polyreactivity
QVQLVESGGGLVQAGGSLRLSCAASGRIFRAYVMGWYRQAPGKERELVATIDSGTSTYYADSVKGRFTISRDNAKNTVYLQMNSLKPEDTAVYYCAVPSHSRVPESFDYWGQGTQVTVSS | low polyreactivity
QVQLVESVGVLVQEGGSLRLSSAASGGSLPRYAMGWYRQAPGKEMELVAVITRGGSTYYADSVKGRFTISRDNAKNTVYLQMIRLIPEDTAVYYFAKYRYQTGIFYYWGQGTQVTVSS | high polyreactivity
QVQLVESGGGLVQAGGSLRITCAASGSIYKSNAMGWYRQAPGKEREFVAAITWSGGSTYYADSVKGRFTISRDNAKNTVDLKMNSLKPEDTAVCYCAATQYRSDGWRYDYWGQGTQVTVSS | high polyreactivity
QVQLVESGGGLVQAGGSLRLICAASGITFLRYAMGWYRQAPGKERELVAAISTRGGSTYYADSVKGRFTISRDNAKNTVYLQMNSLKPEDTAVYYCAAAGVTGSYGGKGRWYDFWGQGSQVTVSS | high polyreactivity
QVQLGESGGGLVQAVGSLRLSCAASGSTFRGNAMGWYRQAPAKARELVAANTSDGSTSYADSVKGRFTISRDNAKNTVYLQMNSLKPEDTAVYYSNADYHQSIWEAVDFEYDYWGQGTQVTVSS | low polyreactivity
QIQLEESVGGLVQAGGTLRLSCASSGFTFYINVMGWDRQAPGKERELVAAISGTGGTNYADSVKGRFTISRDNAKNTVYLQMNSLKPEDTAVYYCARDYYVYSTGHVPLDYWGQGTQVTVSS | low polyreactivity
QVQLVESGAGLVQAGGSLRLSCAASGSTFGINAMGWYRQAPGKERELVASIRGDGGSTYYADSVKGRFTISRDNEKNTVSLQMNSLKPEDTAVYYCNKDDFSSPGENRYHSDPYDSWGQGTQVTVSS | low polyreactivity
QVQLVESGGGLVQAGGSLRLSCAASGYTFYKYAMGWYRQAPGKEREFVADITQSGGSTYYADSVKGRFTISRDNAKNTVYLEMNSLKPEDTAVYYCNAAYSYRPDPKGYDYWGQGTQVTVSS | low polyreactivity
QVQLVESGGGLVQAGGSLRLSCGASGRIFTRYAMGWYRQAPGKERELVAAISYGGGGTYYADSVKGRFTISRDNAKNTVYLQINSLKPEDTAVYYCATDDPLSQINEQCMDYWGQGTQVTVSS | low polyreactivity
QVQLVESGGGLFQAGGSHRLSCAASGSTFYYKAMGWYRQAPGKESELVARISRSGGSTYADSVKGRFTISRDNAKNNVYLQMNSLKPEDTAVYYCNKRGFYTPSVSYDYWGQGTQVTVSS | low polyreactivity
QVQLVESGGGLVQAGGSLRLSCAASGRIFLSYTMGWYRQAPGKERELVAAITSGGSTYYADSVKGRFTISRDNAKNTVYLQMNSLKPEDTAVYYCATDYGYSWYDYWGQGTQVTVSS | low polyreactivity
QGQLVESGGGLVQAGGSLSLSCAASGSIFPVYAMGWYRQAPGTEREFVARIRFSGGRTYYADSVQGRFTISRDNAKNTVYLQMNSLKPEDTAVYYCAKAQYRGRYGYWGQGTQVTVSS | high polyreactivity
QVQLVESGGGLLQAGGSLRISCAASGITFVYYVMGWYRQAPRKERELVAGISSGGSTYYADSVKGRFTISRDNAKNTVYLQMISLKPEDTAVYYCNAVDTYGLWRRYNYWGQGTQVTVSS | high polyreactivity
QVQLVESGGGLVQAGGSLRLSCAASGRTFFSYTMGWYRQAPGKERELVAAISDSDGRTYYADSVKGRFTISRDNAKNTVYLQMNSLKPEDTAVYYCAAVPDKYWSRVRRYLFEHNYWGQGTQVTVSS | low polyreactivity
QVQLVESGGGLVQAGGSLRLSCAASGSTFSGNAMGWYRQAPGKERELVASITDGGNTYYADSVKGRFTISRDNAKNTVYLQMNSLKPEDTAVYYCAAEILWGGYDYWGQGTQVTVSS | low polyreactivity

From the nanobody polyreactivity screen of Harvey et al. (2022)
